The results in this text go back to patent US20080050387A1, “Non-Androgen Dependent Roles for Androgen Receptor and Non-Androgen Related Inhibitors of Androgen Receptor” (priority 2003, published 2008).

Experiment [1] has as its system AR (ARN, ARDBD, ARLBD). The experiment in a line: GST pull-down assay ARA67 / AR. The class given is binding, human. The protocol:
GST-ARN, GST-ARA67 fusion proteins, and GST control protein were expressed in BL21 (DE3)pLysS bacteria strain (Stratagene) and purified with glutathione-Sepharose beads as instructed by the manufacturer (Amersham Pharmacia). In vitro [^35S]methionine-labeled AR, ARN, AR DBD, AR LBD and ARA67 proteins were generated using TNT-coupled Reticulocyte Lysate Systems (Promega). For in vitro interaction, mixtures of glutathione beads bound GST fusion proteins and 5 μl [^35S]methionine-labeled input proteins in 100 μl interaction buffer (20 mM Tris/pH8.0, 60 mM NaCl, 6 mM MgCl2, 1 mM EDTA, 0.05% Nonidet P-40, 1 mM DTT, 8% glycerol, 1 mM PMSF) were incubated in the presence or absence of 10 μM dihydrotestosterone (DHT) on a rotating disk at 4° C. for 2 h. After washing with NETN buffer (20 mM Tris/pH8.0, 100 mM NaCl, 6 mM MgCl2, 1 mM EDTA, 0.5% Nonidet P-40, 1 mM DTT, 8% glycerol, 1 mM PMSF) four times, the bound proteins were separated on 8-13% SDS-PAGE and visualized by autoradiography.

Experiment [2] relates to AR. Nature of the experiment: AR transactivation reporter gene assay in H1299 cells with ARA67. The class given is cell-based, human. Particulars: H1299 cells, 600 ng construct, MMTV-luc. As for the experimental part:
H1299 and COS-1 cells were maintained in Dulbecco's modified Eagle's medium (DMEM) (Life Technologies, Inc.) supplemented with 10% heat inactivated fetal bovine serum (FBS). LNCap cells were maintained in RPMI 1640 supplemented with […]. All media contain 100 units penicillin, 100 μg/ml streptomycin and 2 mM L-glutamine. Cells were seeded to a density of 50-60% confluency for transfection. In transfections where H1299 and COS-1 cells were used, the calcium phosphate precipitation method was used as described (Pan H J, et al. 1999. Endocrine 11:321-327) unless otherwise noted. […] In other reporter gene assays, where ligand treatment was required, cell culture media were changed to DMEM containing 10% charcoal-dextran-stripped FBS (CD-FBS) 2 h before transfection. After 16-18 h transfection, cells were treated with medium containing either vehicle or ligands for another 20-24 h and then cells were harvested. With LNCap cells transfection, the cells were treated with fresh RPMI 1640 containing 10% CD-FBS before transfection with SuperFect performed according to the manufacturer's protocol (Qiagen). After transfection, cells were allowed to recover in fresh RPMI 1640 containing 10% CD-FBS for 8-12 h, and then treated with either vehicle or ligands for another 20-24 h before harvesting. Each experiment was repeated at least three times.
In general terms: Reporter assays use an easily measured gene product as a stand-in for the process of interest.
Target sequence in this assay (P10275 with tags, fused parts or gaps DEL79-80/DUP473-473): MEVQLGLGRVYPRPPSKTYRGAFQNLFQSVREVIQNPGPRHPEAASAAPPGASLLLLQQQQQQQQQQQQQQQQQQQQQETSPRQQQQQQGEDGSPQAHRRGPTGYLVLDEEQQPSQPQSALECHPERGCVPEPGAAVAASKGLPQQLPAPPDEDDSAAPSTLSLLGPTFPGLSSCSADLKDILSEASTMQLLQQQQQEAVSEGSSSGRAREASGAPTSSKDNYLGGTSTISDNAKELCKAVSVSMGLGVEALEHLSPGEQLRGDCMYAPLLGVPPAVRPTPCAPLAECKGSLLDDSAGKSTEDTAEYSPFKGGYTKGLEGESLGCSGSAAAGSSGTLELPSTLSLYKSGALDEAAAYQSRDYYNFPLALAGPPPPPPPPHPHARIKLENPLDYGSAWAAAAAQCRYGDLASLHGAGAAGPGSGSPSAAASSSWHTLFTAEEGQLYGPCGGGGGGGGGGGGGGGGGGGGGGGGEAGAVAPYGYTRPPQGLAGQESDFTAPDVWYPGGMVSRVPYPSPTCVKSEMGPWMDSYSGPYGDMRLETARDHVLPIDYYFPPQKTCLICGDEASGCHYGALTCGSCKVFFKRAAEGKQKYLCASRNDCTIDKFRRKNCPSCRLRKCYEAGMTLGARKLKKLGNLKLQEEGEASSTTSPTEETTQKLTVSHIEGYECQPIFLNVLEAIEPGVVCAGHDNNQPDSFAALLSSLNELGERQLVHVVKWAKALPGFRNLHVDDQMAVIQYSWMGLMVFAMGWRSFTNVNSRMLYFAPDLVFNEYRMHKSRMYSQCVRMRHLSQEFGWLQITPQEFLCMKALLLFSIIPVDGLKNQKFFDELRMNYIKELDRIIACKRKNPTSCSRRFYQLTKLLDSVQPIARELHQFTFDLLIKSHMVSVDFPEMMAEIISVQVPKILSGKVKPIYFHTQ

In experiment [3] the test system is AR (DBD-LBD, LBD, DBD). The experiment in a line: Yeast two-hybrid / liquid β-gal assay hRad9 fragment / AR domains. The format is cell-based, human. The text has this:
The DBD and LBD of AR cDNA was amplified and was cloned into the NdeI and BamHI site of pGBKT7 (Clontech). Yeast strain AH109 was transformed with the vector encoding GAL4 DBD-AR-DBD-LBD fusion and was mated with yeast strain Y187 pretransformed with the human ovary […] cDNA library (Clontech). The yeast clones were selected following the manufacturer's instruction. The positive clones were confirmed by clone lift assay and purified plasmids were retransformed into yeast strain AH109 with bait plasmids. The interaction specificity was further confirmed by liquid […] assay.

For experiment [4], the system named is AR. The experiment in a line: Mammalian two-hybrid assay hRad9 / AR in PC-3 cells. The format is cell-based, human. Particulars: 10 nM DHT; for interaction between AR and full-length hRad9 / interaction between AR and the fragment of hRad9 (aa 327-391): FXXLF motif mutants. The protocol: (§1) PC-3, CWR22R, and LNCaP cell lines were maintained in […] supplemented with 10% fetal calf serum (FCS). Transient transfection for luciferase assays was carried out in 24-well plates (5×10^4 cells per well) using SuperFect as described previously (Lin, H. K., et al., Embo J 21:4037-48 (2002)). DNA mixtures in transfection assay were indicated in each figure. The total amount of transfected DNA was kept constant (1 μg) by adding the corresponding amounts of empty expression plasmids. After transfection, cells were cultured in […] supplemented with 5% charcoal-stripped FCS in the presence or absence of 10 nM dihydrotestosterone (DHT) for 18 h. Luciferase assays were performed as previously described (Yang, L., et al., J Biol Chem 278:16820-7 (2003)). In Western blotting assays, CWR22R or LNCaP cells were transfected by electroporation using 5×10^6 cells/0.4 ml of RPMI medium containing 2% FCS plus 9 μg of the indicated plasmids. 1 μg of EGFP expression vector was used for transfection efficiency. Electroporation was performed at 250 V and 950 μF using Gene Pulser II (Bio-Rad)
Target sequence in this assay (P10275 with tags, fused parts or gaps DEL79-80/DUP473-473): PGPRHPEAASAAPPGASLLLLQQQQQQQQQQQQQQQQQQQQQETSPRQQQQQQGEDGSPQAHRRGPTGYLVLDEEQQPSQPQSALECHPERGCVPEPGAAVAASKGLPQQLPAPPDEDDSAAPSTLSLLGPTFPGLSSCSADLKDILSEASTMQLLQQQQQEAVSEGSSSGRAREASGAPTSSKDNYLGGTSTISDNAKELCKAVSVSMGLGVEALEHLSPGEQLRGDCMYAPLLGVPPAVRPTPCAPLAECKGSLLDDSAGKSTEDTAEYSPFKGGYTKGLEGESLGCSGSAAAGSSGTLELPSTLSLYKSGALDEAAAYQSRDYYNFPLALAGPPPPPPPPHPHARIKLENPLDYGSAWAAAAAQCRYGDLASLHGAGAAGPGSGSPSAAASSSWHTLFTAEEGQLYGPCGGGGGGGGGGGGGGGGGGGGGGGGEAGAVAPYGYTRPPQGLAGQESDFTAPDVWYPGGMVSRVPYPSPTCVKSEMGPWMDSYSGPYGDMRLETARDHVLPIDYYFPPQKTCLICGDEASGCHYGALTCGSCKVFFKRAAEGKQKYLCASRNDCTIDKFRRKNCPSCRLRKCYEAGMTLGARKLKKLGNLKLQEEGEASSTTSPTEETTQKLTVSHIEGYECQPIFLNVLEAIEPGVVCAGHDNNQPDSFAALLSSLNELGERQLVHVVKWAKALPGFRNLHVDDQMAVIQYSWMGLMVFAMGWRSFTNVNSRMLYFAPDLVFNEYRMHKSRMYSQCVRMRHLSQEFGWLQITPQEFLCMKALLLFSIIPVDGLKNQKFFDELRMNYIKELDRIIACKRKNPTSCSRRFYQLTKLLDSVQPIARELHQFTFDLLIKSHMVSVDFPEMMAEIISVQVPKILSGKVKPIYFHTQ

Experiment [5] has as its system AR. Nature of the experiment: AR transactivation MMTV-LUC assay in PC-3 cells with hRad9. The format is cell-based, human. Particulars: MMTV-LUC, 10 nM DHT. As for the experimental part: as §1

B1: ARA671-280: N-terminal region of ARA67, residues 1-280 (protein)
chain: MAAVELEWIPETLYNTAISAVVDNYIRSRRDIRSLPENIQFDVYYKLYQQGRLCQLGSEFCELEVFAKVLRALDKRHLLHHCFQALMDHGVKVASVLAYSFSRRCSYIAESDAAVKEKAIQVGFVLGGFLSDAGWYSDAEKVFLSCLQLCTLHDEMLHWFRAVECCVRLLHVRNGNCKYHLGEETFKLAQTYMDKLSKHGQQANKAALYGELCALLFAKSHYDEAYKWCIEAMKEITAGLPVKVVVDVLRQASKACVVKREFKKAEQLIKHAVYLARDHF
For the molecule B1, in experiment [1], the “interaction with ARN” value is given as “relatively weak”. Besides, the “suppression of AR transactivation by ARA67 fragments” value (shortened to “suppression of AR transactivation”) in experiment [2] was “better suppressor than ARA67281-550 and ARA67281-585”.

B2: ARA678-140: truncated ARA67 fragment, residues 8-140 (protein)
chain: WIPETLYNTAISAVVDNYIRSRRDIRSLPENIQFDVYYKLYQQGRLCQLGSEFCELEVFAKVLRALDKRHLLHHCFQALMDHGVKVASVLAYSFSRRCSYIAESDAAVKEKAIQVGFVLGGFLSDAGWYSDAE
Take B2: the “interaction with ARN” value in experiment [1] is “slightly stronger interaction”.

B3: ARA67281-585: C-terminal region of ARA67, residues 281-585 (protein)
chain: GSKHPKYSDTLLDYGFYLLNVDNICQSVAIYQAALDIRQSVFGGKNIHVATAHEDLAYSSYVHQYSSGKFDNALFHAERAIGIITHILPEDHLLLASSKRVKALILEEIAIDCHNKETEQRLLQEAHDLHLSSLQLAKKAFGEFNVQTAKHYGNLGRLYQSMRKFKEAEEMHIKAIQIKEQLLGQEDYEVALSVGHLASLYNYDMNQYENAEKLYLRSIAIGKKLFGEGYSGLEYDYRGLIKLYNSIGNYEKVFEYHNVLSNWNRLRDRQYSVTDALEDVSTSPQSTEEVVQSFLISQNVEGPSC
Consider B3, for which the “interaction with ARN” value in experiment [1] is on record as “relatively weak”. The “suppression of AR transactivation” value in experiment [2] is given as “could also suppress AR transactivation”.

B4: f-hRad9: fragment aa 327-391 of hRad9 containing the FXXLF motif (protein, UniProt Q99638 327-391, looked up, fragment)
chain: LSPGPQPPKSPGPHSEEEDEAEPSTVPGTPPPKKFRSLFFGSILAPVRSPQGPSPVLAEDSEGEG
Take B4: the “interaction with AR LBD” value in experiment [3] (AH109 yeast cells, presence of androgen) was “interacted”. Further, in experiment [3] (yeast, presence of DHT), the “liquid β-gal assay induction with the AR-DBD-LBD” value is listed as “strong induction”. Also, in experiment [4], the “interaction with AR” value is given as “androgen-dependent interactions were detected”.

B5: GST-ARA67170-338: GST-fused ARA67 fragment 170-338, which contains the LXXLL motif (protein)
chain: LHVRNGNCKYHLGEETFKLAQTYMDKLSKHGQQANKAALYGELCALLFAKSHYDEAYKWCIEAMKEITAGLPVKVVVDVLRQASKACVVKREFKKAEQLIKHAVYLARDHFGSKHPKYSDTLLDYGFYLLNVDNICQSVAIYQAALDIRQSVFGGKNIHVATAHEDLAY
Take B5: in experiment [1], the “interaction with AR LBD” value is on record as “no interaction” and the “interaction with ARN” value is “very weak interaction”.

B6: AXXLF: hRad9 mutant, F361 converted to Ala (protein, UniProt Q99638 1-391, looked up, variant F361A)
Cell cycle checkpoint control …: MKCLVTGGNVKVLGKAVHSLSRIGDELYLEPLEDGLSLRTVNSSRSAYACFLFAPLFFQQYQAATPGQDLLRCKILMKSFLSVFRSLAMLEKTVEKCCISLNGRSSRLVVQLHCKFGVRKTHNLSFQDCESLQAVFDPASCPHMLRAPARVLGEAVLPFSPALAEVTLGIGRGRRVILRSYHEEEADSTAKAMVTEMCLGEEDFQQLQAQEGVAITFCLKEFRGLLSFAESANLNLSIHFDAPGRPAIFTIKDSLLDGHFVLATLSDTDSHSQDLGSPERHQPVPQLQAHSTPHPDDFANDDIDSYMIAMETTIGNEGSRVLPSISLSPGPQPPKSPGPHSEEEDEAEPSTVPGTPPPKKARSLFFGSILAPVRSPQGPSPVLAEDSEGEG
In the case of B6, in experiment [4], the “interaction between AR and full-length hRad9” value is “reduced”; the “interaction between AR and the fragment of hRad9 (aa 327-391)” value is given as “decreased dramatically”.

B7: FXXAA: hRad9 mutant, L364 and F365 converted to Ala (protein, UniProt Q99638 1-391, looked up, variant L364A F365A)
Cell cycle checkpoint control …: MKCLVTGGNVKVLGKAVHSLSRIGDELYLEPLEDGLSLRTVNSSRSAYACFLFAPLFFQQYQAATPGQDLLRCKILMKSFLSVFRSLAMLEKTVEKCCISLNGRSSRLVVQLHCKFGVRKTHNLSFQDCESLQAVFDPASCPHMLRAPARVLGEAVLPFSPALAEVTLGIGRGRRVILRSYHEEEADSTAKAMVTEMCLGEEDFQQLQAQEGVAITFCLKEFRGLLSFAESANLNLSIHFDAPGRPAIFTIKDSLLDGHFVLATLSDTDSHSQDLGSPERHQPVPQLQAHSTPHPDDFANDDIDSYMIAMETTIGNEGSRVLPSISLSPGPQPPKSPGPHSEEEDEAEPSTVPGTPPPKKFRSAAFGSILAPVRSPQGPSPVLAEDSEGEG
For B7, in experiment [4], the “interaction between AR and full-length hRad9” value is “reduced”; the “interaction between AR and the fragment of hRad9 (aa 327-391)” value is recorded as “decreased dramatically”. Further, the “transcriptional activity of AR” value in experiment [5] was “only marginal effect”.

B8: ARA67281-550: truncated ARA67 fragment, residues 281-550 (protein)
chain: GSKHPKYSDTLLDYGFYLLNVDNICQSVAIYQAALDIRQSVFGGKNIHVATAHEDLAYSSYVHQYSSGKFDNALFHAERAIGIITHILPEDHLLLASSKRVKALILEEIAIDCHNKETEQRLLQEAHDLHLSSLQLAKKAFGEFNVQTAKHYGNLGRLYQSMRKFKEAEEMHIKAIQIKEQLLGQEDYEVALSVGHLASLYNYDMNQYENAEKLYLRSIAIGKKLFGEGYSGLEYDYRGLIKLYNSIGNYEKVFEYHNVLSNWNRLRDRQ
For the molecule B8, in experiment [1], the “interaction with ARN” value was “slightly stronger interaction”. Further, the “suppression of AR transactivation” value in experiment [2] is given as “could also suppress AR transactivation”.

B9: ARA671-550: ARA67 lacking the PEST sequence (protein, UniProt Q92624 1-550, looked up, fragment)
chain: MAAVELEWIPETLYNTAISAVVDNYIRSRRDIRSLPENIQFDVYYKLYQQGRLCQLGSEFCELEVFAKVLRALDKRHLLHHCFQALMDHGVKVASVLAYSFSRRCSYIAESDAAVKEKAIQVGFVLGGFLSDAGWYSDAEKVFLSCLQLCTLHDEMLHWFRAVECCVRLLHVRNGNCKYHLGEETFKLAQTYMDKLSKHGQQANKAALYGELCALLFAKSHYDEAYKWCIEAMKEITAGLPVKVVVDVLRQASKACVVKREFKKAEQLIKHAVYLARDHFGSKHPKYSDTLLDYGFYLLNVDNICQSVAIYQAALDIRQSVFGGKNIHVATAHEDLAYSSYVHQYSSGKFDNALFHAERAIGIITHILPEDHLLLASSKRVKALILEEIAIDCHNKETEQRLLQEAHDLHLSSLQLAKKAFGEFNVQTAKHYGNLGRLYQSMRKFKEAEEMHIKAIQIKEQLLGQEDYEVALSVGHLASLYNYDMNQYENAEKLYLRSIAIGKKLFGEGYSGLEYDYRGLIKLYNSIGNYEKVFEYHNVLSNWNRLRDRQ
With B9, in experiment [2], the “suppression of AR transactivation” value is “didn't show a stronger suppression effect than full length ARA67”.
